{"source": "paper PMC6663034", "about": "“ACAP1 assembles into an unusual protein lattice for membrane deformation through multiple stages” (PLoS Computational Biology, 2019)", "proteins": {"B1": {"name": "ACAP1^BAR-PH (a.a. 1-377) (domain or fragment, UniProt Q15027 1-377, looked up)", "chain": "MTVKLDFEECLKDSPRFRASIELVEAEVSELETRLEKLLKLGTGLLESGRHYLAASRAFVVGICDLARLGPPEPMMAECLEKFTVSLNHKLDSHAELLDATQHTLQQQIQTLVKEGLRGFREARRDFWRGAESLEAALTHNAEVPRRRAQEAEEAGAALRTARAGYRGRALDYALQINVIEDKRKFDIMEFVLRLVEAQATHFQQGHEELSRLSQYRKELGAQLHQLVLNSAREKRDMEQRHVLLKQKELGGEEPEPSLREGPGGLVMEGHLFKRASNAFKTWSRRWFTIQSNQLVYQKKYKDPVTVVVDDLRLCTVKLCPDSERRFCFEVVSTSKSCLLQADSERLLQLWVSAVQSSIASAFSQARLDDSPRGPGQ", "notes": "ACAP1 (Arfgap with Coil-coil, Ankryin repeat, PH domain 1), BAR-PH tandem, a.a; 1-377; also called BAR-PH tandem of ACAP1; wild-type ACAP1^BAR-PH; source: E. coli BL21 (DE3), purified (glutathione-Sepharose 4B, GST removed with Precision Protease)"}}, "biological_target": "the molecule itself", "assay": "cryo-EM structure; cryo-electron tomography and sub-tomogram averaging of the ACAP1^BAR-PH coat on non-tubulated (spherical) portions of liposomes; average of 233 coat particles; dimer model PDB 4CKG fitted into the density; dimers to tetramer on membrane", "data": [{"protein": "B1", "values": [{"measurement": "stoichiometry N", "value": 4}]}]}
